Source: US20220387557A1 (OXFORD UNIVERSITY INNOVATION, published 2022)

T1: Fc tagged human TNFR2 (Sino Biological) (human, UniProt P20333 23-257)
T1 construct: Bought reagent; also called hTNFR2; hTNFR2-Fc; not shown: Fc tag of the bought protein
T1 sequence (looked up): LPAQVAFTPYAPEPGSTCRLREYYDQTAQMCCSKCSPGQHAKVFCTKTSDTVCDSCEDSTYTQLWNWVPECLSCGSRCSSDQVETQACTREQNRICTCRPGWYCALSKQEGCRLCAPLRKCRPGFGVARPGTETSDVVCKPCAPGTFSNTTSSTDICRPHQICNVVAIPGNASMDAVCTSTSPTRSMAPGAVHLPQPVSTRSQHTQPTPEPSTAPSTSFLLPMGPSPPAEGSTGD

T2: Fc tagged human TNFR1 (Sino Biological) (human, UniProt P19438 22-211, limits assumed)
T2 construct: Bought reagent; also called hTNFR1; hTNFR1-Fc; not shown: Fc tag of the bought protein
T2 sequence (looked up): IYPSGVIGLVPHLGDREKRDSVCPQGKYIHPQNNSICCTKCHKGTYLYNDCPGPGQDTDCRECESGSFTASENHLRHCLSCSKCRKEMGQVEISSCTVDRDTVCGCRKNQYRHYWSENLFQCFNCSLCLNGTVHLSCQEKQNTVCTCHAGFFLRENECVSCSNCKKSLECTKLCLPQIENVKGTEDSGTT

T3: Fc tagged mouse TNFR1 (Sino Biological) (mouse, UniProt P25118 22-212, limits assumed)
T3 construct: Bought reagent; also called mTNFR1; mTNFR1-Fc; not shown: Fc tag of the bought protein
T3 sequence (looked up): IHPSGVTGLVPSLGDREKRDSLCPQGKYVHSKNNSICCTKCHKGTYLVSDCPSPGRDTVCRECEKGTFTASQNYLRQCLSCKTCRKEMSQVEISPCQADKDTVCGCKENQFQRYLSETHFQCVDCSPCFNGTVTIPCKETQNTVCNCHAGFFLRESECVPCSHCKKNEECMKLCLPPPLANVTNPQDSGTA

T4: Fc tagged mouse TNFR2 (Sino Biological) (mouse, UniProt P25119 23-258)
T4 construct: Bought reagent; also called mTNFR2; mTNF2; not shown: Fc tag of the bought protein
T4 sequence (looked up): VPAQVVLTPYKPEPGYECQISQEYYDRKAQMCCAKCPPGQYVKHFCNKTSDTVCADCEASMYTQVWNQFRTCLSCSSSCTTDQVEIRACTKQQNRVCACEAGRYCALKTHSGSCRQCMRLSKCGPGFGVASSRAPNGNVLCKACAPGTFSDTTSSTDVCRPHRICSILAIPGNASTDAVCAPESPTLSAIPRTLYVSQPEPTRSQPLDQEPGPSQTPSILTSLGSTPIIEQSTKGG


Columns and labels:
[1] = target: T1, Fc tagged human TNFR2 (Sino Biological); assay: SPR, Biacore T200 multi cycle kinetics, 1:1 model; ** = a residual amount of binding is observed but 1 to 1 model is a poor fit
Procedure: (§1) Multi cycle kinetics analysis of binding to hTNFR1, hTNFR2, mTNFR1 and mTNFR2 was performed on the 10 lead variants using a Biacore T200 (serial no. 1909913) instrument running Biacore T200 Evaluation Software V3.0.1 (Uppsala, Sweden) to characterise further the binding to these receptors.
As with the single cycle kinetics, receptor binding was assessed in two separate experiments. In the first set of experiments binding to hTNFR1 (Fc2), hTNFR2 (Fc3) and mTNFR1 (Fc4) was assessed. In the second set of experiments the extent of mTNF2 (Fc4) binding was assessed using hTNFR1 (Fc2) and hTNFR2 (Fc3) as controls. All receptors were diluted in running buffer to a concentration of ˜4 μg/mL and at the start of each cycle loaded onto Fc2, Fc3 and Fc4 of a Protein A CM5 chip and captured at a flow rate of 10 μL/min to give an RU of ˜40-100. The surface was then allowed to stabilise. All kinetic data was obtained using a flow rate of 75 μl/min to minimise any potential mass transfer effects. […] The association phase of TNF was monitored for 280 seconds and the dissociation phase was measured for 2100 seconds. […] Regeneration of the Protein A surface was conducted using two injections of 10 mM glycine-HCL pH 1.5 at the end of each cycle. […]

[2] = target: T2, Fc tagged human TNFR1 (Sino Biological); assay: SPR, Biacore T200 multi cycle kinetics, receptor-Fc captured on Protein A chip, TNF 1.25-40 nM, 1:1 model
Procedure: as §1
(§2) As with the single cycle kinetics, receptor binding was assessed in two separate experiments. In the first set of experiments binding to hTNFR1 (Fc2), hTNFR2 (Fc3) and mTNFR1 (Fc4) was assessed. In the second set of experiments the extent of mTNF2 (Fc4) binding was assessed using hTNFR1 (Fc2) and hTNFR2 (Fc3) as controls. All receptors were diluted in running buffer to a concentration of ˜4 μg/mL and at the start of each cycle loaded onto Fc2, Fc3 and Fc4 of a Protein A CM5 chip and captured at a flow rate of 10 μL/min to give an RU of ˜40-100. The surface was then allowed to stabilise. All kinetic data was obtained using a flow rate of 75 μl/min to minimise any potential mass transfer effects. […] The association phase of TNF was monitored for 280 seconds and the dissociation phase was measured for 2100 seconds. […] Regeneration of the Protein A surface was conducted using two injections of 10 mM glycine-HCL pH 1.5 at the end of each cycle. The signal from the reference channel Fc1 was subtracted from that of Fc2, Fc3 and Fc4 to correct for differences in non-specific binding to a reference surface, and a global Rmax parameter was used in the 1-to-1 binding model.

[3] = target: T3, Fc tagged mouse TNFR1 (Sino Biological); assay: as above
Procedure: as §1, §2

[4] = target: T2, Fc tagged human TNFR1 (Sino Biological); assay: SPR, Biacore T200 single cycle kinetics, receptor-Fc captured on Protein A chip, TNF 1.67-15 nM
Procedure: (§3) Single cycle kinetic analysis was performed using a Biacore T200 (serial no. 1909913) running Biacore T200 Evaluation Software V2.0.1 (Uppsala, Sweden). All experiments were run at 25° C. with HBS-P+ running buffer (pH 7.4) (GE Healthcare, Little Chalfont, UK).
(§4) Due to the limit in the number of available flow cells for analysis (three Fc per analysis, Fc2, Fc3 and Fc4, with Fc1 always being used as blank reference for non-specific subtraction), receptor binding was assessed in two separate overlapping runs using either: hTNFR1 (Fc2), hTNFR2 (Fc3) and mTNFR1 (Fc4), or; hTNFR1 (Fc2), […] and mTNFR2 (Fc4). Receptors were diluted in running buffer to a concentration of ˜4 μg/mL and at the start of each cycle loaded onto Fc2, Fc3 and Fc4 of a Protein A chip (GE Healthcare, Little Chalfont, UK) at a flow rate of 10 μL/min to give an RU of 40-100. The surface was then allowed to stabilise. Single cycle kinetic data was obtained at a flow rate of 45 μL/min. […] The association phase for the three injections of increasing concentrations of TNF was monitored for 240 seconds and a single dissociation phase was measured for 2700 seconds following the last injection of TNF. Regeneration of the Protein A surface was conducted using 10 mM glycine-HCl pH 1.5. The signal from the reference channel Fc1 (no receptor) was subtracted from that of Fc2, Fc3 and Fc4 to correct for differences in non-specific binding to a reference surface.

[5] = target: T3, Fc tagged mouse TNFR1 (Sino Biological); assay: as above
Procedure: as §3, §4

[6] = target: T4, Fc tagged mouse TNFR2 (Sino Biological); assay: SPR (Biacore T200) single cycle kinetics, Fc-tagged receptor captured on Protein A chip, TNF protein as analyte at 1.67-15 nM
Procedure: as §3, §4
(§5) Controls were used to ensure the integrity of the receptors during the Biacore run.

[7] = target: T2, Fc tagged human TNFR1 (Sino Biological); assay: SPR, Biacore single cycle kinetics, stability study, after 1 year at -80° C.
Procedure: as §4
(§6) At day zero (prior to freezing) and following thawing on ice after 3 months and 1 year the following assays were performed: [0341] SDS-PAGE [0342] OD280 nm [0343] Single cycle Biacore for binding to hTNFR1, hTNFR2 and mTNFR1

[8] = target: T3, Fc tagged mouse TNFR1 (Sino Biological); assay: as above
Procedure: as §4, §6

[9] = target: T2, Fc tagged human TNFR1 (Sino Biological); assay: SPR, Biacore single cycle kinetics, stability study, after 1 year at -20° C.
Procedure: as §4, §6

[10] = target: T3, Fc tagged mouse TNFR1 (Sino Biological); assay: as above
Procedure: as §4, §6

[11] = target: T2, Fc tagged human TNFR1 (Sino Biological); assay: SPR, Biacore single cycle kinetics, stability study, before freezing (t=0)
Procedure: as §4, §6

[12] = target: T3, Fc tagged mouse TNFR1 (Sino Biological); assay: as above
Procedure: as §4, §6

[13] = target: T1, Fc tagged human TNFR2 (Sino Biological); assay: SPR (Biacore T200) single cycle kinetics, Fc-tagged receptor captured on Protein A chip, TNF protein as analyte at 1.67-15 nM
Procedure: as §3, §4, §5

[14] = target: T4, Fc tagged mouse TNFR2 (Sino Biological); assay: phage binding test on Fc tagged receptor
[15] = target: T1, Fc tagged human TNFR2 (Sino Biological); assay: phage binding test on Fc tagged receptor

| Binder | Kd [1] [pM] | Kd [2] [pM] | Kd [3] [pM] | Kd [4] [pM] | Kd [5] [pM] | binding result [6] | Kd [7] [pM] | Kd [8] [pM] | Kd [9] [pM] | Kd [10] [pM] | Kd [11] [pM] | Kd [12] [pM] | binding result [13] | binding result [14] | binding result [15] |
| --- | --- | --- | --- | --- | --- | --- | --- | --- | --- | --- | --- | --- | --- | --- | --- |
| TNF mutein C8 (ligand, Human TNF mutein, SQTHDG at positions 84-89; not shown: C-terminal FLAG tag and His6 tag from vector pANT65) VRSSSRTPSDKPVAHVVANPQAEGQLQWLNRRANALLANGVELRDNQLVVPSEGLYLIYSQVLFKGQGCPSTHVLLTHTISRISQTHDGKVNLLSAIKSPCQRETPEGAEAKPWYEPIYLGGVFQLEKGDRLSAEINRPDYLDFAESGQVYFGIIAL | 4130 | 261 | 112 | 188 | 363 | no binding (tested: 15 nM) | – | – | – | – | – | – | – | – | – |
| TNF variant C9 (ligand, Human TNF variant from Library 2, AVTYQT at positions 84-89; not shown: C-terminal FLAG tag and His6 tag from vector pANT65) VRSSSRTPSDKPVAHVVANPQAEGQLQWINGRANALLANGVELRDNQLVVPSEGLYLIYSQVLFKGQGCPSTHVLLTHTISRIAVTYQTKVNLLSAIKSPCQRETPEGAEAKPWYEPIYLGGVFQLEKGDRLSAEINRPDYLDDADSGQVYFGIIAL | 289000 | 71.7 | 1130 | 24.8 | 607 | no binding (tested: 15 nM) | – | – | – | – | – | – | – | – | – |
| TNF mutein G4 (ligand, Human TNF mutein, SSTYNP at positions 84-89; also called mutTNF G4; mutTNF; not shown: C-terminal FLAG tag and His6 tag from vector pANT65) VRSSSRTPSDKPVAHVVANPQAEGQLQWLNRRANALLANGVELRDNQLVVPSEGLYLIYSQVLFKGQGCPSTHVLLTHTISRISSTYNPKVNLLSAIKSPCQRETPEGAEAKPWYEPIYLGGVFQLEKGDRLSAEINRPDYLDFAESGQVYFGIIAL | – | 8.72 | 140 | 17.1 | 40.7 | no binding (tested: 15 nM) | 39.9 | 45.8 | 33.1 | 69.2 | 17.3 | 70 | no binding (tested: 15 nM) | – | – |
| phage displaying mTNF (gene III fusion, pANT65) (other, mouse, UniProt P06804 80-235, looked up, also called mTNF (phage); not shown: FLAG tag, His6 tag and phage gene III protein of pANT65) LRSSSQNSSDKPVAHVVANHQVEEQLEWLSQRANALLANGMDLKDNQLVVPADGLYLVYSQVLFKGQGCPDYVLLTHTVSRFAISYQEKVNLLSAVKSPCPKDTPEGAELKPWYEPIYLGGVFQLEKGDQLSAEVNLPKYLDFAESGQVYFGVIAL | – | – | – | – | – | – | – | – | – | – | – | – | – | binds | binds |
